target: C10A mutant of Arabidopsis thaliana cytochrome c1, soluble domain (Arabidopsis thaliana); assay: BLI; His6-tagged Cc1 (50 ug/mL) immobilised on Ni-NTA biosensors (Octet RED 96e); Cc at 0.3215-10 uM; 10 mM sodium phosphate pH 7.4, 0.01 uM rabbit serum albumin, 0.01% Triton X-100; both proteins reduced; wavelength shift at equilibrium fitted to a non-linear equation with a linear non-specific term; in duplicate

Substance | Kd [nM]
human cytochrome c, wild-type (from UniProt P99999 1-105) (natural protein) | 137
human cytochrome c K53Q acetyl-mimetic mutant (from UniProt P99999 1-105) (natural protein) | 116
human cytochrome c K8Q acetyl-mimetic mutant (from UniProt P99999 1-105) (natural protein) | 99

Reference: PMC8634867
